The text below walks through data of patent US20170143798A1.

Assay [1] deals with mouse IL-22 receptor (IL-22R1) on murine MIN6N8 β-cells and murine islets (mouse) (UniProt Q80XZ4). Briefly: cell-based or functional assay.
Assay [2] concerns the target T1, human IL-22 receptor (IL-22R1) on human LS174T cells and human islets (human) (UniProt Q8N6P7).
T1 sequence (looked up): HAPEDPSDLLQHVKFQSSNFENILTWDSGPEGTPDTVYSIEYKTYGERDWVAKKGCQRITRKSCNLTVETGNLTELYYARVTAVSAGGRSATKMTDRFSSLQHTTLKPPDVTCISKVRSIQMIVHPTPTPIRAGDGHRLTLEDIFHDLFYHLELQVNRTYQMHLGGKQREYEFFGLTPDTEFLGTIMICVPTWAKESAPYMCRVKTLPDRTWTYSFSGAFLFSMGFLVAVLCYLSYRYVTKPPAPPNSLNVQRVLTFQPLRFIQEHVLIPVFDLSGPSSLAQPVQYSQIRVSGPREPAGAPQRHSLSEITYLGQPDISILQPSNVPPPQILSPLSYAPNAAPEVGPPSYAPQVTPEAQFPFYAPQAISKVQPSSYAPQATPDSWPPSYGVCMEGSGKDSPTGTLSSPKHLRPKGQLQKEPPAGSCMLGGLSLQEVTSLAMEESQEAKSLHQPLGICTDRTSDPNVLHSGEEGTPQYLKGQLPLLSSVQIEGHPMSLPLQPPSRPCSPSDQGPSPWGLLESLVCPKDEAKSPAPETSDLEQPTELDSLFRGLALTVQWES
Briefly: cell-based or functional assay.

UniProt Q80XZ4, sequence (Q80XZ4 16-581): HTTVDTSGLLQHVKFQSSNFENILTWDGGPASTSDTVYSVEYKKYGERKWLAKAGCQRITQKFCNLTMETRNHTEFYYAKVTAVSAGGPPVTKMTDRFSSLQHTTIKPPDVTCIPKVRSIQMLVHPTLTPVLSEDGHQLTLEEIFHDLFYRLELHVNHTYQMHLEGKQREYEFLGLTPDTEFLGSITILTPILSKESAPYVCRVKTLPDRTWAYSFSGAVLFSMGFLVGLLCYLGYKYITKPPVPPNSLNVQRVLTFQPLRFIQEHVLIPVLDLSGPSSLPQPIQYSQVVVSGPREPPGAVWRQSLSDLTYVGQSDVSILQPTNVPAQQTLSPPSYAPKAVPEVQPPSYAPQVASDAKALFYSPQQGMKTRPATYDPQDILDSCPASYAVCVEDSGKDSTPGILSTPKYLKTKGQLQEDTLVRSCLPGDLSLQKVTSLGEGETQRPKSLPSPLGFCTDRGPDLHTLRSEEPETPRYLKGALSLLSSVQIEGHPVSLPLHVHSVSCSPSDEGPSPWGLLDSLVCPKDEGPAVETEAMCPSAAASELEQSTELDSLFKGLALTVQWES

“recombinant human IL-22 (from UniProt Q9GZX6 34-179) (ligand)”: the reduction of ER stress (ERAI-sXBP1 reporter) in murine MIN6N8 cells with 0.5 mM palmitate; amount needed against recombinant mouse IL-22 in assay [1] came out at 16 fold.

B1: recombinant mouse IL-22 (ligand, UniProt Q9JJY9 34-179, looked up)
chain: LPVNTRCKLEVSNFQQPYIVNRTFMLAKEASLADNNTDVRLIGEKLFRGVSAKDQCYLMKQVLNFTLEDVLLPQSDRFQPYMQEVVPFLTKLSNQLSSCHISGDDQNIQKNVRRLKETVKKLGESGEIKAIGELDLLFMSLRNACV
Consider B1, for which, in assay [2], the suppression of oxidative stress (nitrite production) in human LS174T cells with 0.5 mM palmitate; concentration needed against human recombinant IL-22 was 64 fold.
